The results in this text go back to article PMC7291361 (ACS infectious diseases, 2020).

This assay addresses H4 NB-10 HA full length soluble ectodomain (FLsE) (Influenza A virus A/American black …, UniProt M1UPL4, strain). Description: ELISA.

B1: K03.12 IgG (antibody, V domains shown)
VH: QVQLVQSGAEVKKPGASVKVSCKTSGYTFTAYYLHWVRQAPGQGFEWMAWINPNTGDTNYAQKFQGRVTLSRDTSITTAYMELTRLRSDDTAVYYCAKDLTLMYVFDSGWARGAHDYYGMDVWGQGTTVAVSG
VL: PSALTQPASVSGSPGQSVTISCTGTNSDVGTFDLVSWYQQYPGKAPKLIIYEGSRRPSGVSDRFSGSKSGNTASLTISGLQAEDEADYYCSSYAGSVVFGGGTKLTVL
Turning to B1, the binding result was “no binding (tested: 1 μM IgG)”.
